Experimental findings from paper PMC7891396 are described below.

The assay deals with Int^C-eGFP-H6 with the C124A and N146A mutations (construct 9), inactivated C-terminal precursor of the AceL NrdHF split intein (not stated (metagenomic contig from the Antarctic Ace Lake, might originate from a bacteriophage)). The assay is described as follows: MST; Monolith NT.115; 9 at 8.8 nM (eGFP as fluorophore), 1 in a dilution series from 2500 to 0.61 nM; BSA 0.05 % (w/v) and Tween-20 0.1 % (v/v) added; 20 % MST power, 20 % blue LED; four parametric sigmoidal fit.

Broadly, the Kd is a measure of binding affinity in units of concentration. In turn, “MBP-Int^N-H6 (1), N-terminal precursor of the AceL NrdHF split intein (domain or fragment)” gave a dissociation constant (Kd) of 82.2 nM.
